Laboratory results as given in patent publication US20100324271A1 (TOKAI UNIVERSITY EDUCATIONAL SYSTEM, published 2010).

Biological target: T1, fetuin (UniProt P12763 19-359, carrying complex type and O-linked oligosaccharides)
T1 construct: Natural glycoprotein, separated by SDS-PAGE and blotted onto PVDF; also called fetuin carrying complex type and O-linked oligosaccharides
T1 sequence (looked up): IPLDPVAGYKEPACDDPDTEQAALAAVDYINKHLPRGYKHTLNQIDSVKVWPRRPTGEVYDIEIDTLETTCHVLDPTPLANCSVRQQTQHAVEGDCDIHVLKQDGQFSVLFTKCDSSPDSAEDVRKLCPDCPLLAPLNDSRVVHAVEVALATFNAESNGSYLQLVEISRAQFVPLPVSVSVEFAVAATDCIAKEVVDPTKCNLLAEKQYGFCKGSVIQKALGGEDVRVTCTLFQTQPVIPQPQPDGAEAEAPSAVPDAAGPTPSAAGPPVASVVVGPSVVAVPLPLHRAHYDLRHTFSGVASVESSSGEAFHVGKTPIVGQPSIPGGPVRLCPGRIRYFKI
Experiment: Western blot, 5 µg/lane on PVDF, phage detected with HRP-labeled anti-M13 antibody
Method: Fetuin, asialo-fetuin, RNase A, and RNase B (5 μg/lane) were separated by SDS-polyacrylamide gel electrophoresis (10% gel) and blotted onto a PVDF membrane. The SDS-PAGE gel was stained with Coomassie Brilliant Blue. The reactivity of phage antibody to natural glycoproteins was examined by Western blotting with M3-7 phage antibody followed by HRP-labeled anti-M13 phage antibody as described above.

B1: M3-7 phage antibody (scFv, V domains shown)
VH: QVQLQQSGPGLVKASETLSLTCAVSGYSISSGYYWGWIRQPPGKGLEWIGNIYHSGNTYYNPSLKSRVTISRDTSKNHFSLKLKSVTAADTAVYYCARADPGYMIFNWFDPWGQGTLVTVSS
VL: NFMLTQPPSASGTPGQRVTISCSGSSSNIGNNDVYWYQQFPGTAPKLLIYRNNQRPSGVPDRFSGSKSGTSASLAISGLRSEDEADYYCAAWDDSLIFGGGTKLTVLG
notes: also called Man3-specific scFv-displaying phage antibody
binding result: no binding
